Experiment [1] has as its target T1, SARS-CoV-2 receptor binding domain (RBD), wild type, His-tagged (BEI NR52309) (SARS-CoV-2, UniProt P0DTC2 319-541).
T1 construct: also called WT RBD
The experiment is described as follows: RBD KD column; method and antibody format not stated.

Experiment [2] concerns the target T1, SARS-CoV-2 receptor binding domain …. The experiment is described as above. This is another data set of the same source.
Experiment [3] addresses T2, SARS-CoV-2 Spike, prefusion S ectodomain (BEI NR52394), His-tagged (SARS-CoV-2, UniProt P0DTC2 14-1213).
T2 construct: extracellular domain; also called S protein; S glycoprotein
The experiment is described as follows: BLI, His-tagged Spike on Ni-NTA biosensors, 1:1 fit.

Experiment [4] deals with T1, SARS-CoV-2 receptor binding domain ….
Experiment [5] shares this target. This is another data set of the same source.
Experiment [6] shares this target. This is another data set of the same source.
For experiment [7] the target is unchanged. The source holds these as a separate data set.

Like-named read-outs stand apart in the source and are kept apart here.

B1: mAb 178 (antibody, V domains shown)
VH: QVQLVQSGAEVKKPGASVKVSCKASGYTFTDYHMHWVRQAPGQGLEWMGWINPNSGGTNYAQKFQGRVTMTRDTSTSTVYMELSSLRSEDTAVYYCARDISSWYEITKFDPWGQGTLVTVSS
VL: EIVMTQSPATLSVSPGERATLSCKASQSVSGTYLAWYQQKPGQAPRLLIYGASTRATGIPARFSGSGSGTEFTLTISSLQSEDFAVYYCLQTHSYPPTFGQGTKVEIKR
notes: also called IgG 178
In general, Kd refers to the free concentration of one partner at which half of the binding sites on the other are occupied at equilibrium, for simple one-to-one binding. A higher Kd goes with a looser complex. Take B1: the Kd in experiment [1] and in experiment [2] was 72 nM each time.

B2: 4A8 IgG (antibody, V domains shown)
VH: EVQLVESGAEVKKPGASVKVSCKVSGYTLTELSMHWVRQAPGKGLEWMGGFDPEDGETMYAQKFQGRVTMTEDTSTDTAYMELSSLRSEDTAVYYCATSTAVAGTPDLFDYYYGMDVWGQGTTVTVSS
VL: EIVMTQSPLSSPVTLGQPASISCRSSQSLVHSDGNTYLSWLQQRPGQPPRLLIYKISNRFSGVPDRFSGSGAGTDFTLKISRVEAEDVGVYYCTQATQFPYTFGQGTKVDIK
notes: also called IgG 4A8
In general, koff refers to the first-order rate constant of dissociation. Low readings indicate slow dissociation, high ones fast dissociation. For orientation: kon means the rate constant with which the complex forms. A low value points to slow association. In experiment [3], B2 showed a Kd of 1.42 nM, a koff of 0.000191 s⁻¹ and a kon of 133000 M⁻¹ s⁻¹.

B3: mAb 52 (antibody, V domains shown)
VH: QVQLVQSGAEVKKPGSSVKVSCKASGYTFTSYGISWVRQAPGQGLEWMGGIIPMFGTTNYAQKFQGRVTITADKSTSTAYMELSSLRSEDTAVYYCARDRGDTIDYWGQGTLVTVSS
VL: DIQMTQSPSSLSASVGDRVTITCRASQGISNNLNWYQQKPGKAPKLLIYAASSLESGVPSRFSGSGSGTDFTLTISSLQPEDFATYYCQQGNGFPLTFGPGTKVDIKR
notes: also called IgG 52; antibody 52
For B3, the RBD binding in experiment [4] was found to be 1.3; in experiment [5] it was 0.8; in experiment [6] it was 0.4; in experiment [7] it was 0.5.

B4: mAb 254 (antibody, V domains shown)
VH: EVQLLESGGGLVQPGGSLRLSCAASGFTFSSSAMHWVRQAPGKGLEWVSAIGTGGDTYYADSVKGRFTISRDNSKNTLYLQMNSLRAEDTAVYYCAREGDGYNFYFDYWGQGTLVTVSS
VL: DIQMTQSPSSLSASVGDRVTITCRASQGISSYLAWYQQKPGKAPKLLIYDASSLQIGVPSRFSGSGSGTDFTLTISSLQPEDFATYYCLQSYSTPPWTFGQGTKVEIKR
notes: also called IgG 254
Turning to B4, the Kd in experiment [1] and in experiment [2] was 127 nM throughout.

B5: mAb 120 (antibody, V domains shown)
VH: QVQLVQSGAEVKKPGASVKVSCKASGYTFTSYDINWVRQAPGQGLEWMGMIDPSGGSTSYAQKFQGRVTMTRDTSTSTVYMELSSLRSEDTAVYYCAKDFGGGTRYDYWYFDLWGRGTLVTVSS
VL: EIVMTQSPATLSVSPGERATLSCRASQSVSSRYLAWYQQKPGQAPRLLIYGASTRATGIPARFSGSGSGTEFTLTISSLQSEDFAVYYCQQYYTTPRTFGQGTRLEIKR
notes: also called IgG 120
As to B5, the Kd in experiment [1] and in experiment [2] was 24 nM throughout.

B6: mAb 160 (antibody, V domains shown)
VH: QVQLVQSGAEVKKPGASVKVSCKASGYTFTGHDMHWVRQAPGQGLEWMGIINPSGGSTSYAQKFQGRVTMTRDTSTSTVYMELSSLRSEDTAVYYCARANSLRYYYGMDVWGQGTMVTVSS
VL: DIQMTQSPSSLSASVGDRVTITCRASQSVSSWLAWYQQKPGKAPKLLIYAASSLQSGVPSRFSGSGSGTDFTLTISSLQPEDFATYYCQQGYTTPYTFGQGTKLEIKR
notes: also called IgG 160
On to B6, for which the Kd in experiment [1] and in experiment [2] was 7.7 nM throughout.

B7: mAb 128 (antibody, V domains shown)
VH: QVQLVQSGAEVKKPGASVKVSCKASGYTFTHYYMHWVRQAPGQGLEWMGIINPSSSSASYSQKFQGRVTMTRDTSTSTVYMELSSLRSEDTAVYYCARDGRYGSGSYPFDYWGQGTLVTVSS
VL: DIQMTQSPSSLSASVGDRVTITCRASQNISRYLNWYQQKPGKAPKLLIYDASNLETGVPSRFSGSGSGTDFTLTISSLQPEDFATYYCQQANGFPPTFGQGTKLEIKR
Consider B7, for which the Kd in experiment [1] and in experiment [2] was 57 nM each time.

B8: mAb 236 (antibody, V domains shown)
VH: QVQLVQSGAEVKKPGASVKVSCKASGGTFTSYGINWVRQAPGQGLEWMGWMNPNSGNTGYAQKFQGRVTMTRDTSTSTVYMELSSLRSEDTAVYYCASRGIQLLPRGMDVWGQGTTVTVSS
VL: not shown
notes: also called IgG 236
Regarding B8, the RBD binding is 0.1 in experiment [4], 0.2 in experiment [5], 1 in experiment [6] and 1.2 in experiment [7]. Further, the Kd in experiment [1] and in experiment [2] was 145 nM in each case.

B9: mAb 46 (antibody, V domains shown)
VH: EVQLLESGGGLVQPGRSLRLSCAASGFTFSSYAMSWVRQAPGKGLEWVSTIYSGGSTYYADSVKGRFTISRDNSKNTLYLQMNSLRAEDTAVYYCARGDSRDAFDIWGQGTMVTVSS
VL: DIQMTQSPSSLSASVGDRVTITCRASQSISSWLAWYQQKPGKAPKLLIYDASNLETGVPSRFSGSGSGTDFTLTISSLQPEDFATYYCQQSYSTPFTFGPGTKVDIKR
notes: also called IgG 46; antibody 46
As for B9, the RBD binding is 1.3 in experiment [4], 1.2 in experiment [5], 0.2 in experiment [6] and 0.2 in experiment [7]. The Kd in experiment [1] and in experiment [2] was 83 nM each time.

B10: mAb 158 (antibody, V domains shown)
VH: QVQLVQSGAEVKKPGASVKVSCKASGYTFTGYYMHWVRQAPGQGLEWMGWINPLNGGTNFAPKFQGRVTMTRDTSTSTVYMELSSLRSEDTAVYYCARDPGGSYSNDAFDIWGQGTLVTVSS
VL: DIQMTQSPSSLSASVGDRVTITCRASQSISRYLNWYQQKPGKAPKLLIYDASNLESGVPSRFSGSGSGTDFTLTISSLQPEDFATYYCQQANSFPLTFGGGTKVDIKR
notes: also called IgG 158
Take B10: the Kd in experiment [1] and in experiment [2] was 172 nM each time.

B11: mAb 324 (antibody, V domains shown)
VH: QVQLVQSGAEVKKPGASVKVSCKASGGTFNNYGISWVRQAPGQGLEWMGWMNPNSGNTGYAQKFQGRVTMTRDTSTSTVYMELSSLRSEDTAVYYCARVGDYGDYIVSPFDLWGRGTLVTVSS
VL: DIQMTQSPSSLSASVGDRVTITCRASQSITTYLNWYQQKPGKAPKLLIYDASNLETGVPSRFSGSGSGTDFTLTISSLQPEDFATYYCQQSYSTPPTFGQGTKVEIKR
notes: also called IgG 324
B11: the RBD binding in experiment [4] came out at 0.1; in experiment [5], 0.2; in experiment [6] it was 1; in experiment [7], 1.2. Also, the Kd in experiment [1] and in experiment [2] was 111 nM throughout.

B12: mAb 56 (antibody, V domains shown)
VH: QVQLVQSGAEVKKPGASVKVSCKASGYTFTSYGISWVRQAPGQGLEWMGWISAYNGNTNYAQKLQGRVTMTRDTSTSTVYMELSSLRSEDTAVYYCARDIGPIDYWGQGTLVTVSS
VL: DIQMTQSPSSLSASVGDRVTITCRASQGISSYLAWYQQKPGKAPKLLIYDASNLQSGVPSRFSGSGSGTDFTLTISSLQPEDFATYYCQQANSFPSTFGQGTKVEIKR
notes: also called IgG 56
For the molecule B12, the Kd in experiment [1] and in experiment [2] was 23 nM throughout.

B13: mAb 64 (antibody, V domains shown)
VH: EVQLLESGGGLVQPGGSLRLSCAASGFPFSQHGMHWVRQAPGKGLEWVSAIDRSGSYIYYADSVKGRFTISRDNSKNTLYLQMNSLRAEDTAVYYCARDTYGGKVTYFDYWGQGTLVTVSS
VL: DIQMTQSPSSLSASVGDRVTITCRASQGISSHLAWYQQKPGKAPKLLIYDASNLETGVPSRFSGSGSGTDFTLTISSLQPEDFATYYCQQTYSTPWTFGQGTKVEIKR
notes: also called IgG 64
Regarding B13, the Kd in experiment [1] and in experiment [2] was 97 nM throughout.

B14: mAb 82 (antibody, V domains shown)
VH: QVQLVQSGAEVKKPGASVKVSCKASGGSFSTSAFYWVRQAPGQGLEWMGWINPYTGGTNYAQKFQGRVTMTRDTSTSTVYMELSSLRSEDTAVYYCARSRALYGSGSYFDYWGQGTLVTVSS
VL: DIQMTQSPSSLSASVGDRVTITCRASQVISNYLAWYQQKPGKAPKLLIYDASNLETGVPSRFSGSGSGTDFTLTISSLQPEDFATYYCQQSFSPPPTFGQGTRLEIKR
notes: also called IgG 82
With B14, the RBD binding was found to be 0.6 in experiment [4], 0.4 in experiment [5], 0.6 in experiment [6] and 1.4 in experiment [7]. The Kd in experiment [1] and in experiment [2] was 206 nM in each case.

B15: mAb 108 (antibody, V domains shown)
VH: QVQLVQSGAEVKKPGASVKVSCKASGYIFSRYAIHWVRQAPGQGLEWMGWMNPISGNTDYAPNFQGRVTMTRDTSTSTVYMELSSLRSEDTAVYYCAKDGSQLAYLVEYFQHWGQGTLVTVSS
VL: DIQMTQSPSSLSASVGDRVTITCRASQVITNNLAWYQQKPGKAPKLLIYDASTLETGVPSRFSGSGSGTDFTLTISSLQPEDFATYYCQQSYTFPYTFGQGTKVEIKR
As for B15, the Kd in experiment [1] and in experiment [2] was 72 nM in each case.

B16: mAb 349 (antibody, V domains shown)
VH: EVQLLESGGGLVQPGGSLRLSCAASGFTFSNYGMHWVRQAPGKGLEWVSGISSAGSITNYADSVKGRFTISRDNSKNTLYLQMNSLRAEDTAVYYCAGNHAGTTVTSEYFQHWGQGTLVTVSS
VL: DIQMTQSPSSLSASVGDRVTITCRASQSISSWLAWYQQKPGKAPKLLIYDTSNLETGVPSRFSGSGSGTDFTLTISSLQPEDFATYYCQQSYTTPWTFGQGTRLEIKR
notes: also called IgG 349
As to B16, the Kd in experiment [1] and in experiment [2] was 74 nM throughout.

The values above are taken from patent publication US20250011397A1 (HOSPITAL FOR SICK CHILDREN, published 2025).
